This passage reports Kd, dH and stoichiometry N results from PMC9579148.

This experiment deals with SARS-CoV-2 main protease M^pro (untagged, native termini) (SARS-CoV-2) (UniProt P0DTD1). The experiment is described as follows: ITC. In general terms: Isothermal titration calorimetry measures the heat released or taken up as one component is titrated into another.

Usually Kd stands for the equilibrium constant for the complex coming apart. Lower therefore signals higher affinity. The stoichiometry N is a count of units in the complex or per binding partner. With “compound 4 (acetyl-Gly-Phe-His aldehyde, tripeptide derivative of AT1001)”, the dissociation constant Kd was determined as 640 nM, the dH is -12.7 kcal/mol and the stoichiometry N stood at 1.04.

For the substance “compound 57 (BOC-Gly-Phe-His aldehyde) (peptide)”, the Kd was determined as 442 nM, the dH was -14.5 kcal/mol and the stoichiometry N is 0.991.

On to “compound 58 (octanoyl-Gly-Phe-His aldehyde) (peptide)”, for which the Kd turned out to be 425 nM, the dH was -16.4 kcal/mol and the stoichiometry N turned out to be 0.966.
